In patent US20190194660, “INHIBITORS OF SRSF1 TO TREAT NEURODEGENERATIVE DISORDERS” (University of Sheffield, published 2019):

T1: SRSF1-m4 (11-196 quadruple Arg to Ala mutant) (Homo sapiens, UniProt Q07955 SEQ:2-187)
T1 chain: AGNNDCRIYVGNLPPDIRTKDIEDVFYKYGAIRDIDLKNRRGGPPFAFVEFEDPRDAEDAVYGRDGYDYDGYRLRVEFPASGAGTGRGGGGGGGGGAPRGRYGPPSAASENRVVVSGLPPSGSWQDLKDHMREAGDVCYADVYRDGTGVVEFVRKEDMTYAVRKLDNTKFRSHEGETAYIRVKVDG


Tests used:
MAGOH = MAGOH (UniProt P61326 P61326:1-146); assay: UV crosslinking; negative control protein; conditions: tags: hexa-histidine, E. coli BL21(DE3)-RP; label: 5'-32P
Source text: (§1) (A,B) Protein:RNA UV crosslinking assays using purified recombinant proteins and 32P-end-radiolabeled G4C2×5 (A) and C4G2×5 (B) repeat RNA probes. Proteins are visualised on SDS-PAGE stained with Coomassie blue (left panels) and covalently linked RNA:protein complexes by autoradiography on Phospholmages (Right panels). UV exposure is indicated by +. […] Nuclei are stained in blue by DAPI. Scale bar: 3 μm;
(§2) We performed in vitro UV-crosslinking assays using purified recombinant proteins and synthetic G4C2×5 and C4G2×5 RNA probes to investigate direct protein:RNA interactions. […] Purified proteins were incubated with 5′-end 32P-radiolabelled G4C2×5 (FIG. 20a) or C4G2×5 (FIG. 20b) RNA probes prior to irradiation with UV where indicated (+) and resolved by SDS-PAGE.

[1] = biological target: T1, SRSF1-m4 (11-196 quadruple Arg to Ala …); assay: UV crosslinking; conditions: tags: hexa-histidine, E. coli BL21(DE3)-RP; label: 5'-32P
Source text: (§3) Histone H3 is used to check for potential nuclear contamination. (g) Cytoplasmic and total G4C2-repeat sense transcript levels were normalized to Tub84b levels in G4C2×36+Ctrl-RNAi or G4C2×36+SRSF1⁷⁶-RNAi Drosophila in triplicate experiments prior to plotting as a ratio to account for potential changes in mRNA transcription/stability (mean±SEM; paired t-test; N (qRT-PCR reactions)=3).
(§4) N2A cells were transfected with FLAG control, FLAG-tagged SRSF1 or FLAG-tagged SRSF1-m4 and various lengths of sense or antisense repeat transcript constructs prior to fixing of ribonucleoprotein complexes. Cell extracts were then subjected to anti-FLAG immunoprecipitation under the same conditions used in the co-immunoprecipitation of NXF1 (FIG. 6g) prior to the qRT-PCR analysis of SRSF1-crosslinked RNA molecules.

ALYREF = ALYREF (Homo sapiens, UniProt Q86V81 Q86V81:1-257); assay: UV crosslinking
SRSF1 (11-196) = SRSF1 (11-196) (Homo sapiens, UniProt Q07955 SEQ:11-196); assay: UV crosslinking; no signal without UV; conditions: tags: hexa-histidine, E. coli BL21(DE3)-RP; label: 5'-32P
Source text: as §1, §2

[2] = biological target: T1, SRSF1-m4 (11-196 quadruple Arg to Ala …); assay: UV crosslinking; mutant position printed R93,94,117,118A in text, R90,93,117,118A in FIG. 13; conditions: tags: hexa-histidine, E. coli BL21(DE3)-RP; label: 5'-32P
Source text: as §3, §4

Sequence of MAGOH (P61326 whole entry, one chain of several): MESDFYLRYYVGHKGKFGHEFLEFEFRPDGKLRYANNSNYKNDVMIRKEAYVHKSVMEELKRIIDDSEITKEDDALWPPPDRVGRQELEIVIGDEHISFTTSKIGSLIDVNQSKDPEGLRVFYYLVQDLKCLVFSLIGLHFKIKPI

Row | Binder | binding result (MAGOH) | binding result [1] | binding result (ALYREF) | binding result (SRSF1 (11-196)) | binding result [2]
1 | CCCCGGCCCCGGCCCCGGCCCCGGCCCCGG (ssRNA) [C4G2x5 RNA] | no binding | binds | binds | binds | 
2 | GGGGCCGGGGCCGGGGCCGGGGCCGGGGCC (ssRNA) [G4C2x5 RNA] | no binding |  | binds | binds | binds
